How the values were obtained:
purified protein [1] = substrate: CCn1c(=NN=c2sc3cc(S(=O)(=O)O)ccc3n2CC)sc2cc(S(=O)(=O)O)ccc21; experiment: purified protein; type: biochemical, Streptomyces griseoflavus; conditions: 50 mM Britton-Robinson buffer, O2 co-substrate
purified protein [2] = substrate: COc1cccc(OC)c1O; experiment: purified protein; type: biochemical, Streptomyces griseoflavus; conditions: 50 mM Britton-Robinson buffer, O2 co-substrate

| Protein | Km (purified protein [1]; pH 4.0, 30 °C) | kcat (purified protein [1]; pH 4.0, 30 °C) | kcat/Km (purified protein [1]; pH 4.0, 30 °C) | Km (purified protein [1]; pH 3.5, 30 °C) | kcat (purified protein [1]; pH 3.5, 30 °C) | kcat/Km (purified protein [1]; pH 3.5, 30 °C) | Km (purified protein [2]; pH 8.5, 30 °C) | kcat (purified protein [2]; pH 8.5, 30 °C) | kcat/Km (purified protein [2]; pH 8.5, 30 °C) | Km (purified protein [2]; pH 8.0, 30 °C) | kcat (purified protein [2]; pH 8.0, 30 °C) | kcat/Km (purified protein [2]; pH 8.0, 30 °C) | also measured |
| --- | --- | --- | --- | --- | --- | --- | --- | --- | --- | --- | --- | --- | --- |
| SgfSL (SgfSLwt) (Streptomyces griseoflavus) (protein, pET32-Xa/Lic, thioredoxin/His tail cut with factor Xa; E. coli BL21(DE3)/Rosetta; homotrimer; primers encode N-terminus AGAAPAGG and C-terminus PQEHAH) AGAAPAGGEVRRVTMYAERLAGGQMGYGLEKGKASIPGPLIELNEGDTLHVEFENTMDVPVSLHVHGLDYEISSDGTKQNKSHVEPGGTRTYTWRTHEPGRRADGTWRAGSAGYWHYHDHVVGTEHGTGGIRNGLYGPVIVRRKGDVLPDATHTIVFNDMTINNRPAHTGPNFEATVGDRVEIVMITHGEYYHTFHMHGHRWADNRTGMLTGPDDPSQVIDNKICGPADSFGFQIIAGEGVGAGAWMYHCHVQSHSDMGMVGLFLVKKPDGTIPGYDPQEHAH | 360 ± 70 µM | 15 ± 1 s⁻¹ | 42000 M⁻¹ s⁻¹ | – | – | – | – | – | – | – | – | – | Km (purified protein [2]; pH 9.0, 30 °C): 320 ± 80 µM; kcat (purified protein [2]; pH 9.0, 30 °C): 0.35 ± 0.02 s⁻¹; kcat/Km (purified protein [2]; pH 9.0, 30 °C): 1090 M⁻¹ s⁻¹ |
| SgfSL (SgfSLwt) (Streptomyces griseoflavus; H165A/M199G) (protein, pET32-Xa/Lic, thioredoxin/His tail cut with factor Xa; E. coli BL21(DE3)/Rosetta; homotrimer; primers encode N-terminus AGAAPAGG and C-terminus PQEHAH) AGAAPAGGEVRRVTMYAERLAGGQMGYGLEKGKASIPGPLIELNEGDTLHVEFENTMDVPVSLHVHGLDYEISSDGTKQNKSHVEPGGTRTYTWRTHEPGRRADGTWRAGSAGYWHYHDHVVGTEAGTGGIRNGLYGPVIVRRKGDVLPDATHTIVFNDGTINNRPAHTGPNFEATVGDRVEIVMITHGEYYHTFHMHGHRWADNRTGMLTGPDDPSQVIDNKICGPADSFGFQIIAGEGVGAGAWMYHCHVQSHSDMGMVGLFLVKKPDGTIPGYDPQEHAH | – | – | – | 90 ± 10 µM | 9 s⁻¹ | 95000 M⁻¹ s⁻¹ | – | – | – | – | – | – | Km (purified protein [2]; pH 6.5, 30 °C): 280 ± 50 µM; kcat (purified protein [2]; pH 6.5, 30 °C): 0.31 ± 0.01 s⁻¹; kcat/Km (purified protein [2]; pH 6.5, 30 °C): 1110 M⁻¹ s⁻¹ |
| SgfSL (SgfSLwt) (Streptomyces griseoflavus; M199G/R240H) (protein, pET32-Xa/Lic, thioredoxin/His tail cut with factor Xa; E. coli BL21(DE3)/Rosetta; homotrimer; primers encode N-terminus AGAAPAGG and C-terminus PQEHAH) AGAAPAGGEVRRVTMYAERLAGGQMGYGLEKGKASIPGPLIELNEGDTLHVEFENTMDVPVSLHVHGLDYEISSDGTKQNKSHVEPGGTRTYTWRTHEPGRRADGTWRAGSAGYWHYHDHVVGTEHGTGGIRNGLYGPVIVRRKGDVLPDATHTIVFNDGTINNRPAHTGPNFEATVGDRVEIVMITHGEYYHTFHMHGHHWADNRTGMLTGPDDPSQVIDNKICGPADSFGFQIIAGEGVGAGAWMYHCHVQSHSDMGMVGLFLVKKPDGTIPGYDPQEHAH | – | – | – | 100 ± 15 µM | 20 ± 1 s⁻¹ | 203000 M⁻¹ s⁻¹ | 250 ± 20 µM | 4.18 ± 0.09 s⁻¹ | 16500 M⁻¹ s⁻¹ | – | – | – | – |
| SgfSL (SgfSLwt) (Streptomyces griseoflavus; M199G) (protein, pET32-Xa/Lic, thioredoxin/His tail cut with factor Xa; E. coli BL21(DE3)/Rosetta; homotrimer; primers encode N-terminus AGAAPAGG and C-terminus PQEHAH) AGAAPAGGEVRRVTMYAERLAGGQMGYGLEKGKASIPGPLIELNEGDTLHVEFENTMDVPVSLHVHGLDYEISSDGTKQNKSHVEPGGTRTYTWRTHEPGRRADGTWRAGSAGYWHYHDHVVGTEHGTGGIRNGLYGPVIVRRKGDVLPDATHTIVFNDGTINNRPAHTGPNFEATVGDRVEIVMITHGEYYHTFHMHGHRWADNRTGMLTGPDDPSQVIDNKICGPADSFGFQIIAGEGVGAGAWMYHCHVQSHSDMGMVGLFLVKKPDGTIPGYDPQEHAH | 200 ± 60 µM | 45 ± 7 s⁻¹ | 226000 M⁻¹ s⁻¹ | – | – | – | – | – | – | 670 ± 120 µM | 3.39 ± 0.17 s⁻¹ | 5070 M⁻¹ s⁻¹ | – |
| SgfSL (SgfSLwt) (Streptomyces griseoflavus; M199A) (protein, pET32-Xa/Lic, thioredoxin/His tail cut with factor Xa; E. coli BL21(DE3)/Rosetta; homotrimer; primers encode N-terminus AGAAPAGG and C-terminus PQEHAH) AGAAPAGGEVRRVTMYAERLAGGQMGYGLEKGKASIPGPLIELNEGDTLHVEFENTMDVPVSLHVHGLDYEISSDGTKQNKSHVEPGGTRTYTWRTHEPGRRADGTWRAGSAGYWHYHDHVVGTEHGTGGIRNGLYGPVIVRRKGDVLPDATHTIVFNDATINNRPAHTGPNFEATVGDRVEIVMITHGEYYHTFHMHGHRWADNRTGMLTGPDDPSQVIDNKICGPADSFGFQIIAGEGVGAGAWMYHCHVQSHSDMGMVGLFLVKKPDGTIPGYDPQEHAH | 320 ± 50 µM | 33 ± 2 s⁻¹ | 102000 M⁻¹ s⁻¹ | – | – | – | – | – | – | 830 ± 80 µM | 1.3 ± 0.05 s⁻¹ | 1550 M⁻¹ s⁻¹ | – |
| SgfSL (SgfSLwt) (Streptomyces griseoflavus; Y230A) (protein, pET32-Xa/Lic, thioredoxin/His tail cut with factor Xa; E. coli BL21(DE3)/Rosetta; homotrimer; primers encode N-terminus AGAAPAGG and C-terminus PQEHAH) AGAAPAGGEVRRVTMYAERLAGGQMGYGLEKGKASIPGPLIELNEGDTLHVEFENTMDVPVSLHVHGLDYEISSDGTKQNKSHVEPGGTRTYTWRTHEPGRRADGTWRAGSAGYWHYHDHVVGTEHGTGGIRNGLYGPVIVRRKGDVLPDATHTIVFNDMTINNRPAHTGPNFEATVGDRVEIVMITHGEAYHTFHMHGHRWADNRTGMLTGPDDPSQVIDNKICGPADSFGFQIIAGEGVGAGAWMYHCHVQSHSDMGMVGLFLVKKPDGTIPGYDPQEHAH | – | – | – | 170 ± 40 µM | 29 ± 3 s⁻¹ | 169000 M⁻¹ s⁻¹ | 760 ± 30 µM | 1.68 ± 0.07 s⁻¹ | 2220 M⁻¹ s⁻¹ | – | – | – | – |
